The source of these data is patent publication US20230050846A1 (LIFESEARCH, published 2023).

This assay has as its target Human F1Fo-ATPase purified from HepG2 cells (human). In words: cell-based or functional assay.

Take RGAGSIREAGGAFGKREQAEEERYFRAQSREQLAALKK [IF1-10-47]: the “F1-ATPase activity (NADH-coupled assay, purified F1Fo-ATPase, 1 µM peptide), inhibition as compared to control” value worked out at 75%.

Consider RGAGSIREAGGAFGKREQAEEERYFRAQSREQLAALKKHHEEEIVHH [IF1-10-56], for which the “F1-ATPase activity (NADH-coupled assay, purified F1Fo-ATPase, 1 µM peptide), inhibition as compared to control” value is 88%.

B1: IF1-1-60 (peptide)
peptide: GSDQSENVDRGAGSIREAGGAFGKREQAEEERYFRAQSREQLAALKKHHEEEIVHHKKEI
In the case of B1, the “F1-ATPase activity (NADH-coupled assay, purified F1Fo-ATPase, 1 µM peptide), inhibition as compared to control” value came to 94%.
